According to US20150166627A1 (Sanofi, published 2015):
Like-named read-outs stand apart in the source and are kept apart here. Non-standard residues stand in square brackets, D forms with d. No end group written: not given here. Met(O2) = CS(=O)(=O)CC[C@H](N)C(=O)O; d(αMeK) = C[C@@](N)(CCCCN)C(=O)O; Met(O) = CS(=O)CC[C@H](N)C(=O)O; αMeOrn = C[C@](N)(CCCN)C(=O)O; αMeK = C[C@](N)(CCCCN)C(=O)O; Nle = CCCC[C@H](N)C(=O)O; Aib = CC(C)(N)C(=O)O

Tests used:
Test in all cases: cell-based or functional assay
human GIP receptor [1] = biological target: T1, human GIP receptor (human, UniProt P48546 22-466)
T1 sequence (looked up): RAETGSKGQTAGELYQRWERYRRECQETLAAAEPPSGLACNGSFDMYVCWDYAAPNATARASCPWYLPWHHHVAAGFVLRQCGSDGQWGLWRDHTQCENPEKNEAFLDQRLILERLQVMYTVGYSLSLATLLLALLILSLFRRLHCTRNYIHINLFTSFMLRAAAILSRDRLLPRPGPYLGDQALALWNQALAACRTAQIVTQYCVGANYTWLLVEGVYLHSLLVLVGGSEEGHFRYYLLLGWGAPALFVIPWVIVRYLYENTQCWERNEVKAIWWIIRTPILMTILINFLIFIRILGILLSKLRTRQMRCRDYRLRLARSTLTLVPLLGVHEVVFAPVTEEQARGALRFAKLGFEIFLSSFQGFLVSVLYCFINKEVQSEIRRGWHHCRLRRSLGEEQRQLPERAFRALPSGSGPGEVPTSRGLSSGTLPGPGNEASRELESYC

human glucagon receptor = human glucagon receptor (human, UniProt P47871 26-477)
human glucagon receptor, sequence (P47871 26-477): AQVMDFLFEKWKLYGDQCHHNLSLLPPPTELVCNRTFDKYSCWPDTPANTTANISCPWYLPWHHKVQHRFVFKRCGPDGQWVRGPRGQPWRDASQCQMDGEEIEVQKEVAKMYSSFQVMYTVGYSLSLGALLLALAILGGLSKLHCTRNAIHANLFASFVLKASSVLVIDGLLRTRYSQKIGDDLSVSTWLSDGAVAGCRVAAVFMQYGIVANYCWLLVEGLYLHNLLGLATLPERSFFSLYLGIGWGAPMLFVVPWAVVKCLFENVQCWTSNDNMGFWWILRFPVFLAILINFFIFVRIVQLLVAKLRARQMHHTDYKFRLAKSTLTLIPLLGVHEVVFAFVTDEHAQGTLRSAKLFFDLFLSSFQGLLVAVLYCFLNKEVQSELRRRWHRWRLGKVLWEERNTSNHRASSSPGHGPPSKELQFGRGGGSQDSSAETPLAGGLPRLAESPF

human GLP-1 receptor [2] = biological target: T2, human GLP-1 receptor (human, UniProt P43220 24-463)
human GIP receptor [3] = biological target: T1, human GIP receptor; remark: listed apart in the source
human GLP-1 receptor [4] = biological target: T2, human GLP-1 receptor; remark: listed apart in the source
Target sequence in this assay (P43220 24-463): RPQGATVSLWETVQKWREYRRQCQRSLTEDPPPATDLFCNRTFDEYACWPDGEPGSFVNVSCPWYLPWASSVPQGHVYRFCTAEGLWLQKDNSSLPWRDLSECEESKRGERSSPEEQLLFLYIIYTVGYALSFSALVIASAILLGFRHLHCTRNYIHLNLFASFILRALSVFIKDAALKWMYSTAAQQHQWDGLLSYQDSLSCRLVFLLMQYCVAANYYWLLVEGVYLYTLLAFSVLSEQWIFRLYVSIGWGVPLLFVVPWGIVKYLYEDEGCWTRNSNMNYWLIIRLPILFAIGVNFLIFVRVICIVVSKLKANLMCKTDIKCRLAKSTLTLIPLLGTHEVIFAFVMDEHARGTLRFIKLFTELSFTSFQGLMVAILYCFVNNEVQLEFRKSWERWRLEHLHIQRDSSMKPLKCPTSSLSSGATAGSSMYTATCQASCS

## Y[Aib]EGTFTSDLSIQ[Nle]EKEAVRLFIEWLKAGGPSSGAPPPSK-NH2 [SEQ ID NO: 12]
Human GIP receptor [1]
  EC50 hGIP R [pM], cAMP formation: 8.7 pM
Human glucagon receptor
  EC50 hGLUC R [pM], cAMP formation: > 1e+06 pM

## Y[Aib]EGTFTSDLSIQ[Met(O2)]EKEAVRLFIEWLKAGGPSSGAPPPS-NH2 [SEQ ID NO: 14]
Human GIP receptor [1]
  EC50 hGIP R [pM], cAMP formation: 4.1 pM
Human glucagon receptor
  EC50 hGLUC R [pM], cAMP formation: > 1e+06 pM
Human GLP-1 receptor [2]
  EC50 hGLP-1 R [pM], cAMP formation: 0.6 pM

## Y[Aib]EGTFTSDLSIQLEKEAVRLFIEWLKAGGPSSGAPPPS-NH2 [SEQ ID NO: 10]
Human GIP receptor [1]
  EC50 hGIP R [pM], cAMP formation: 6.8 pM
Human glucagon receptor
  EC50 hGLUC R [pM], cAMP formation: > 1e+06 pM

## Y[Aib]EGTFTSDLSIQLEEEAV[Aib]LFIEWLKAGGPSSGAPPPS-NH2 [SEQ ID NO: 16]
Human GIP receptor [1]
  EC50 hGIP R [pM], cAMP formation: 1.5 pM
Human glucagon receptor
  EC50 hGLUC R [pM], cAMP formation: > 1e+06 pM
Human GLP-1 receptor [2]
  EC50 hGLP-1 R [pM], cAMP formation: 1 pM

## Y[Aib]EGTFTSDLSIQLEEEAV[d(αMeK)]LFIEWLKAGGPSSGAPPPS-NH2 [SEQ ID NO: 18]
Human GIP receptor [1]
  EC50 hGIP R [pM], cAMP formation: 36.1 pM
Human glucagon receptor
  EC50 hGLUC R [pM], cAMP formation: > 1e+06 pM
Human GLP-1 receptor [2]
  EC50 hGLP-1 R [pM], cAMP formation: 2 pM

## YAEGTFTSDVSIYLEGQAAKEFIAWLVKGR (ends and bridges not checked) [Tyr(1)Ile(12)-GLP1]
Human GIP receptor [3]
  EC50 hGIP R [pM], cAMP formation: 3660 pM
Human GLP-1 receptor [4]
  EC50 hGLP-1 R [pM], cAMP formation: 5 pM

## Y[Aib]EGTFTSDLSIQLEKEAVRLFIEWLKAGGPSSGAPPPS-NH2 [SEQ ID NO: 20]
Human GIP receptor [1]
  EC50 hGIP R [pM], cAMP formation: 3.9 pM
Human glucagon receptor
  EC50 hGLUC R [pM], cAMP formation: > 1e+06 pM
Human GLP-1 receptor [2]
  EC50 hGLP-1 R [pM], cAMP formation: 1 pM

## Y[Aib]EGTFTSDLSIQ[Met(O)]EKEAVRLFIEWLKAGGPSSGAPPPS-NH2 [SEQ ID NO: 13]
Human GIP receptor [1]
  EC50 hGIP R [pM], cAMP formation: 8.1 pM
Human glucagon receptor
  EC50 hGLUC R [pM], cAMP formation: > 1e+06 pM
Human GLP-1 receptor [2]
  EC50 hGLP-1 R [pM], cAMP formation: 0.4 pM

## Y[Aib]EGTFTSDLSIQLEEEAVRLFIEWLKAGGPSSGAPPPS-NH2 [SEQ ID NO: 15]
Human GIP receptor [1]
  EC50 hGIP R [pM], cAMP formation: 7.3 pM
Human glucagon receptor
  EC50 hGLUC R [pM], cAMP formation: > 1e+06 pM
Human GLP-1 receptor [2]
  EC50 hGLP-1 R [pM], cAMP formation: 1.4 pM

## Y[Aib]EGTFTSDLSIQMEKEAVRLFIEWLKAGGPSSGAPPPS-NH2 [SEQ ID NO: 9]
Human GIP receptor [1]
  EC50 hGIP R [pM], cAMP formation: 3.1 pM
Human glucagon receptor
  EC50 hGLUC R [pM], cAMP formation: > 1e+06 pM
Human GLP-1 receptor [2]
  EC50 hGLP-1 R [pM], cAMP formation: 1.1 pM

## Y[Aib]EGTFTSDLSIQLEEEAV[αMeK]LFIEWLKAGGPSSGAPPPS-NH2 [SEQ ID NO: 17]
Human GIP receptor [1]
  EC50 hGIP R [pM], cAMP formation: 1.8 pM
Human glucagon receptor
  EC50 hGLUC R [pM], cAMP formation: > 1e+06 pM
Human GLP-1 receptor [2]
  EC50 hGLP-1 R [pM], cAMP formation: 1.1 pM

## Y[Aib]EGTFTSDLSIQLEEEAV[αMeOrn]LFIEWLKAGGPSSGAPPPS-NH2 [SEQ ID NO: 19]
Human GIP receptor [1]
  EC50 hGIP R [pM], cAMP formation: 2.2 pM
Human glucagon receptor
  EC50 hGLUC R [pM], cAMP formation: > 1e+06 pM

## YXEGTFTSDLSIQMEEEAVRLFIEWLKAGGPSSGAPPPS (Aib at position 2; C-terminal amide (-NH2)) [SEQ ID NO: 8]
Human GIP receptor [1]
  EC50 hGIP R [pM], cAMP formation: 9.8 pM
Human glucagon receptor
  EC50 hGLUC R [pM], cAMP formation: > 1e+06 pM
